Legend:
SurA (E. coli), P0ABZ6 = molecular target: T1, SurA (E. coli), P0ABZ6; test: native gel or EMSA; NativePAGE Bis-Tris 3–12%; HTL 3.8 µM with SurA or SurA:OmpA at 1:3 molar ratio, or each alone, in TS130G (20 mM Tris-HCl pH ≈ 8, 130 mM NaCl, 10% glycerol) + 0.01% DDM-CL, 30 min at 30°C; bands excised and analysed by SDS–PAGE with silver staining; details: remark: other sources report otherwise
T1 chain: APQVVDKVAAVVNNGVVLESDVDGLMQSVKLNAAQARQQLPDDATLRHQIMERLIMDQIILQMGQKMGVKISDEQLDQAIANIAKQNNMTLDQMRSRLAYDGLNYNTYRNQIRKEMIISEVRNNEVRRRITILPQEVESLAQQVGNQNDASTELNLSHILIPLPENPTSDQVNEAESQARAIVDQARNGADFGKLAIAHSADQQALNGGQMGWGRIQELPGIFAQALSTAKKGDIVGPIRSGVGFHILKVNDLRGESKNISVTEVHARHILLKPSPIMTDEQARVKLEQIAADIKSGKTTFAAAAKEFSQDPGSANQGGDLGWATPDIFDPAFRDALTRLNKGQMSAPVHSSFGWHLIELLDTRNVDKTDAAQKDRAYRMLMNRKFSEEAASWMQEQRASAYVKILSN

[1] = molecular target: the molecule itself; test: as above

B1: SurA, P0ABZ6 21-428 (natural protein)
chain: APQVVDKVAAVVNNGVVLESDVDGLMQSVKLNAAQARQQLPDDATLRHQIMERLIMDQIILQMGQKMGVKISDEQLDQAIANIAKQNNMTLDQMRSRLAYDGLNYNTYRNQIRKEMIISEVRNNEVRRRITILPQEVESLAQQVGNQNDASTELNLSHILIPLPENPTSDQVNEAESQARAIVDQARNGADFGKLAIAHSADQQALNGGQMGWGRIQELPGIFAQALSTAKKGDIVGPIRSGVGFHILKVNDLRGESKNISVTEVHARHILLKPSPIMTDEQARVKLEQIAADIKSGKTTFAAAAKEFSQDPGSANQGGDLGWATPDIFDPAFRDALTRLNKGQMSAPVHSSFGWHLIELLDTRNVDKTDAAQKDRAYRMLMNRKFSEEAASWMQEQRASAYVKILSN
- stoichiometry N (SurA (E. coli), P0ABZ6): 2

B2: SurA–OmpA complex (complex)
chain 1: APQVVDKVAAVVNNGVVLESDVDGLMQSVKLNAAQARQQLPDDATLRHQIMERLIMDQIILQMGQKMGVKISDEQLDQAIANIAKQNNMTLDQMRSRLAYDGLNYNTYRNQIRKEMIISEVRNNEVRRRITILPQEVESLAQQVGNQNDASTELNLSHILIPLPENPTSDQVNEAESQARAIVDQARNGADFGKLAIAHSADQQALNGGQMGWGRIQELPGIFAQALSTAKKGDIVGPIRSGVGFHILKVNDLRGESKNISVTEVHARHILLKPSPIMTDEQARVKLEQIAADIKSGKTTFAAAAKEFSQDPGSANQGGDLGWATPDIFDPAFRDALTRLNKGQMSAPVHSSFGWHLIELLDTRNVDKTDAAQKDRAYRMLMNRKFSEEAASWMQEQRASAYVKILSN
chain 2: APKDNTWYTGAKLGWSQYHDTGFINNNGPTHENQLGAGAFGGYQVNPYVGFEMGYDWLGRMPYKGSVENGAYKAQGVQLTAKLGYPITDDLDIYTRLGGMVWRADTKSNVYGKNHDTGVSPVFAGGVEYAITPEIATRLEYQWTNNIGDAHTIGTRPDNGMLSLGVSYRFGQGEAAPVVAPAPAPAPEVQTKHFTLKSDVLFNFNKATLKPEGQAALDQLYSQLSNLDPKDGSVVVLGYTDRIGSDAYNQGLSERRAQSVVDYLISKGIPADKISARGMGESNPVTGNTCDNVKQRAALIDCLAPDRRVEIEVKGIKDVVTQPQA
notes: SurA, periplasmic chaperone, E. coli; as the chain of m2; OmpA, outer membrane protein, from pET11a-ompA; also called substrate-engaged SurA; occupied chaperone; source: E. coli BL21(DE3), made separately; OmpA pellet in 6 M urea mixed with SurA supernatant, urea dialysed away, purified (HisTrap, HiTrap Q; S200 SEC for the size exclusion experiments)
- stoichiometry N [1]: 2
